Laboratory results from US20180193454A1 (IMMUNEXT, published 2018).
Numbering of substitutions follows the chain as printed.

T1: human CD154 (human, UniProt P29965 113-261, limits assumed)
T1 construct: also called CD154 antigen; CD40L
T1 sequence (looked up): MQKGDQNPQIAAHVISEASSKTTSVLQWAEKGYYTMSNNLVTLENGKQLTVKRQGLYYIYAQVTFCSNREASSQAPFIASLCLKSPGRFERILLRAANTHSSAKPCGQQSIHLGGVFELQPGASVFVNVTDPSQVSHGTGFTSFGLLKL

T2: CD154 expressed on cells (CD154 expressing Jurkat cells; T cell CD154) (UniProt P29965 1-261, limits assumed)
T2 construct: whole, on cells; also called CD154 (expressed on Jurkat cells)
T2 sequence (looked up): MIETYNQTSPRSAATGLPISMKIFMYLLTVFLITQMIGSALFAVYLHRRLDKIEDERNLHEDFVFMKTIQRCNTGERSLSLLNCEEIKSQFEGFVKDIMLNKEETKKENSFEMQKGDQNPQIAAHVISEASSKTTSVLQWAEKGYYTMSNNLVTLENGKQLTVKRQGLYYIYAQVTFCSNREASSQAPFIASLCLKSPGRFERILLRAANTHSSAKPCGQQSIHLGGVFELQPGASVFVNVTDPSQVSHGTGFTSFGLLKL

B1: variant 25, humanized anti-human CD154 antibody derived from IDEC-131 (antibody, V domains shown)
VH: EVQLQESGPGLVKPSETLSLTCTVSGDSITNGFWIWIRKPPGNKLEYMGYISYSGSTYYNPSLKSRISISRDTSKNQFSLKLSSVTAADTGVYYCAYRSYGRTPYYFDYWGQGTTLTVSS
VL: DIVMTQSPSFLSASVGDRVTITCKASQNLNHAVAWYQQKPGKSPKLLIYSASNRYTGVPDRFSGSGSGTDFTLTISSLQPEDFADYFCQQYDDYPYTFGGGTKLEIK
B2: IDEC-131, humanized anti-human CD154 IgG1 antibody (antibody, V domains shown)
VH: B1 VH with Y97C, Y109F
VL: B1 VL with L29V, N30I, H31T, D92N, D93S
notes: Humanized human IgG1 derived from mouse antibody 24-31
B3: variant 29, humanized anti-human CD154 antibody derived from IDEC-131 (antibody, V domains shown)
VH: B1 VH
VL: B1 VL with A25G, S26N, N28P, N30G
B4: variant 23, humanized anti-human CD154 antibody derived from IDEC-131 (antibody, V domains shown)
VH: B1 VH
VL: B1 VL with A25G, Q27S, N28P, N30G
notes: also called combination #23
B5: variant 24, humanized anti-human CD154 antibody derived from IDEC-131 (antibody, V domains shown)
VH: B1 VH
VL: B1 VL with S26P, N30G, H31T
B6: variant 28, humanized anti-human CD154 antibody derived from IDEC-131 (antibody, V domains shown)
VH: B1 VH
VL: B1 VL with S26P, Q27S, N28S, N30G
B7: variant 27, humanized anti-human CD154 antibody derived from IDEC-131 (antibody, V domains shown)
VH: B1 VH
VL: B1 VL with N28H, N30G
B8: variant 22, humanized anti-human CD154 antibody derived from IDEC-131 (antibody, V domains shown)
VH: B1 VH
VL: B1 VL with Q27S, N30G, H31N
B9: variant 31, humanized anti-human CD154 antibody derived from IDEC-131 (antibody, V domains shown)
VH: B1 VH
VL: B1 VL with S26N, N28P, N30G
B10: variant 30, humanized anti-human CD154 antibody derived from IDEC-131 (antibody, V domains shown)
VH: B1 VH
VL: B1 VL with S26G, Q27H, N28S, N30G, H31T
B11: INX021 (variant 21), humanized anti-human CD154 IgG1 antibody derived from IDEC-131 (antibody, V domains shown)
VH: B1 VH
VL: B1 VL with Q27S, N30G
B12: variant 26, humanized anti-human CD154 antibody derived from IDEC-131 (antibody, V domains shown)
VH: B1 VH
VL: B1 VL with N28H, N30G, H31T

What follows are binders tested against T1, human CD154 (assay: SPR, Biacore 3000, 25 C; antibody immobilized, CD154 antigen flowed over; average n = 6; exponent sign is a misprint in the cell ('+04'); value taken as E-04, as fixed by the same row's KD x Ka (3.62E-11 x 4.11E+06 = 1.49E-04)).
Procedure: (§1) Binding experiments were performed on Biacore […] at 25° C. […] Binding of antigen to the tested antibodies was monitored in real time. From the observed kₒₙ, the koff and KD was determined for each variant.
(§2) Scoring analysis was performed using specific analyte concentrations. At the tested concentration, binding should be observed even if the ligand binding affinity is relatively weak. Full kinetics may be performed by known methods. For the molecular interactions with fast off rate, steady state kinetics may be used to determine the KD value.

koff [s⁻¹] | Binder
0.000149 | B1

What follows are binders tested against T1, human CD154 (assay: SPR, Biacore 3000, 25 C; antibody immobilized, CD154 antigen flowed over; average n = 6).
Procedure: as §1, §2

Fold improvement in KD (compared to IDEC131) [fold] | Kd [nM] | koff [s⁻¹] | kon [M⁻¹ s⁻¹] | Binder
1 | 0.151 | 0.000525 | 3.47e+06 | B2
3.9 | 0.0362 | – | 4.11e+06 | B1
4.2 | 0.0344 | 0.000133 | 3.86e+06 | B3
4.2 | 0.0421 | 0.000141 | 3.35e+06 | B4
4.9 | 0.0364 | 0.000135 | 3.7e+06 | B5
4.8 | 0.0315 | 0.000115 | 3.65e+06 | B6
4.5 | 0.0336 | 0.00012 | 3.58e+06 | B7
5.2 | 0.0262 | 0.000117 | 4.48e+06 | B8
4.8 | 0.0341 | 0.000123 | 3.61e+06 | B9
4.4 | 0.0329 | 0.00014 | 4.24e+06 | B10
4.7 | 0.0289 | 0.000128 | 4.42e+06 | B11
2.5 | 0.0576 | – | 2.03e+06 | B12

The binders below were run against T2, CD154 expressed on cells (CD154 …) (assay: binding to CD40L (CD154) expressing Jurkat cells, readout % normalized mean MFI (panel title 'CD40L Jurkat Binding'; legend paragraph 14 calls it a BIAcore assay)).

EC50 (read off the curve) [nM] | Binder
~4 | B2

What follows are binders tested against T2, CD154 expressed on cells (CD154 …) (assay: binding to CD154 expressing Jurkat cells (legend calls it BIAcore binding assays), FIG. 3).

fold increase in binding affinity compared to IDEC-131 [fold] | Binder
~5 | B11
